How the values were obtained:
[1] = test system: human platelet rich plasma; assay: ADP-induced platelet aggregation in human platelet rich plasma; assay type: cell-based
Description: Column fractions obtained during purification were assayed for activity using fresh human platelet rich plasma (PRP) prepared from blood obtained from human volunteers who had had no medication for at least two weeks. Blood (36 ml) was drawn into 4 ml of 0.1 M citrate and centrifuged at 150×g for 20 minutes. The supernatant, PRP, was removed and the remaining blood was centrifuged at 10,000 RPM to obtain platelet poor plasma (PPP). Platelet counts were adjusted to 250,000 platelets/μl using a Coulter counter. A Helena four channel aggregometer was used to monitor platelet aggregation. Inhibition of ADP-induced platelet aggregation was monitored at 37° C. by adding venom fractions one minute prior to the addition of ADP (10-20 μM final concentration). […] Rabbit and canine PRP was prepared by the same procedure and used in the studies described below.
CN inhibited ADP-induced platelet aggregation in human, canine, and rabbit PRPs (FIG. 6). Empty circles represent human platelet rich plasma, solid circles represent canine PRP, and empty triangles represent rabbit PRP. Varying concentration of CN were preincubated for one minute with PRP prior to the addition of ADP.

[2] = test system: unactivated human platelets; assay: Scatchard analysis of CN binding to unactivated human platelets
[3] = test system: human melanoma M24 met cells; assay: M24 met cell adhesion to extracellular matrix proteins; assay type: cell-based
Text: The compositions of the present invention also have utility in inhibiting metastasis in melanoma, carcinoma and sarcoma patients. […] Thus, methods and compositions for preventing metastases in melanoma, carcinoma and sarcoma patients are also contemplated as within the scope of the present invention.

[4] = test system: canine carotid artery thrombosis model; assay: Reoccluding canine carotid artery thrombosis model; assay type: in vivo
Text: The model of carotid artery thrombosis in the anesthetized canine described is a modification of one developed for the study of experimentally-induced coronary artery thrombosis [Romson, J. L. et al., Thromb. Res. 17:841 (1980)]. The experimental procedure results in the formation of a platelet rich intravascular thrombus at the site of an electrolytically-induced endothelial lesion in proximity to a distal arterial stenosis. The carotid artery is selected for the experimental model, thereby allowing one vessel to be used as a control and the other to be used after administration of the thrombolytic and antithrombotic therapy. APSAC (anisoylated plasminogen streptokinase activator complex) has been used as the thrombolytic agent successfully in this model. […] Parameters which are recorded include repeated measures of: phasic and mean carotid artery blood flow velocity using an ultrasonic flow probe, time to thrombotic occlusion, time to recannulization, ex vivo platelet aggregation, prothrombin time, thrombin time, activated partial thromboplastin time, red cell and white cell counts, hematocrit, EKG profile and body temperature, before and after administration of APSAC or APSAC plus CN to separate groups of animals.
Conditioned male mongrel dogs (8-10 kg) have been used for all in vivo studies. […] Arterial blood pressure is monitored from the cannulated femoral artery with the use of a blood pressure transducer. […] Blood flow velocity in the carotid vessels is monitored continuously. […]
Electrolytic injury to the intimal surface of each carotid vessel is accomplished with the use of an intravascular electrode. […] The current delivered to each vessel is monitored continuously and maintained at 300 μA. […]

OVCAR-5 cells [5] = assay: Invasion of OVCAR-5 cells through Matrigel, modified Boyden chamber; assay type: cell-based, human; settings: 1000 nM
Description: Modified Boyden chambers were employed to measure invasion. Filters of 12 mm Boyden chamber with 12 μm pore size (Corning Costar, Cambridge, Mass.) were coated with 1:50 dilution of Matrigel in serum free medium. Cells (2.5×10^5 cells in 200 μl of medium) pre-treated with contortrostatin, antibodies against different integrins, or vehicle (control), were applied to the upper wells. HT1080 conditioned medium was added to the bottom well. The cells were incubated at 37° C. for 8 hr., at which point cells on the top side of the membrane were removed with a wet cotton swab. Cells which invaded through the filter membrane were fixed and stained with Diff-Quik™ staining kit (Dade Diagnostics of P. R. Inc., Aguada, Puerto Rico). The membranes were removed from the holder, and were mounted on slides. Migration was quantitated by determining the number of cells in five randomly selected high power vision field using a microscope. Each inhibitor concentration was tested in duplicate, and the experiments were repeated three times to confirm results.

OVCAR-5 cells [6] = assay: Phosphotyrosine immunoblot, OVCAR-5 cells; assay type: cell-based, human; settings: data not shown
platelets = assay: Platelet release reactions (granule contents); assay type: cell-based
Text: Platelets comprise a plurality of different granules, including alpha granules and dense granules, whose contents are released when the platelets aggregate. […] Thus, normal platelet physiological processes are necessarily further perturbed with administration of applaggin.

Solubility in water = assay type: physicochemical
Text: CN may be administered by a variety of heretofore known means suitable for delivery thereof into the blood stream in substantial amounts. Intravenous administration of CN in a suitable liquid vehicle or excipient is presently contemplated as the preferred route of administration. […] Alternatively, CN may be administered orally (in the form of tablets or capsules formulated with a suitable binder or excipient material, or in the form of aqueous or oily suspensions, solutions, emulsions, syrups or elixirs) or as a parenteral suspension. As is well known in the art, adjuvants such as local anesthetics, preservatives, buffering agents, lubricants, wetting agents, colorants, flavorings, fillers and diluents may suitably be included in any of these formulations.

[7] = test system: human platelet rich plasma; settings: cited from earlier work

B1: contortrostatin (protein)
chain: DAPANPCCDAATCKLTTGSQCADGLCCDQCKFMKEGTVCRRARGDDLDDYCNGISAGCPRNPFHA
For B1, the “IC50 of ADP-induced human platelet aggregation” value ([1]; 10 μM ADP, preincubated one minute) was 0.73 µg/mL, the “platelet aggregation inhibitory activity after reduction of the disulfide bonds” value ([1]; even at concentrations ten times the IC50) was “completely eliminated platelet aggregation inhibitory activity” and the “number of binding sites (Bm)” value [2] was 100,000. The “M24 met cell adhesion to fibronectin and vitronectin” value [3] was “inhibit”, the “recovery of platelet counts” value ([4]; by the conclusion of the experimental procedure) was 30-40 % of the baseline value and the “drop in platelet counts” value ([4]; during experiment, APSAC plus CN (0.155 mg/kg)) was 10-20 % of the baseline value. For the same molecule, the “changes in mean arterial blood pressure or mean heart rate” value ([4]; following infusion of CN) was “essentially no changes”, the “invasion of OVCAR-5 cells through Matrigel” value (OVCAR-5 cells [5]) was “almost completely inhibited invasion” and the tyrosine phosphorylation (OVCAR-5 cells [6]) was “do not show significant enhancement of tyrosine phosphorylation”. The platelet release reactions (platelets) was “does not inhibit platelet release reactions”, the solubility (Solubility in water) was “soluble in water” and the “50% inhibition (IC50) of human platelet aggregation in platelet rich plasma” value [7] was 0.8 µg/mL. For the same molecule, the “concentration that completely inhibits ADP-induced platelet aggregation” value ([7]; preincubation for 1 minute) was “approximately 100 nM”.
